Data: US20110265202A1

How the values were obtained:
[1] = target: PrpS8 (Papaver rhoeas pollen S8 protein) on P. rhoeas pollen (Papaver rhoeas); test: cell-based or functional assay
[2] = target: PrpS1-GFP fusion protein expressed in Arabidopsis thaliana pollen (line BG16) (Papaver rhoeas); test: cell-based or functional assay

## recombinant Papaver rhoeas pistil S8 protein (PrsS8) (ligand)
[1]
  % germination of P. rhoeas S1S8 pollen with both PrsS1 and PrsS8 added (29.7% with S1 alone): 1%

## recombinant Papaver rhoeas pistil S1 protein (PrsS1) (ligand)
[2]
  pollen germination of BG16 Arabidopsis pollen, in vitro SI assay: 50 % reduction
  pollen viability (Evans blue) at t=2 h, BG16+PrsS1 against WT+S1 pollen: 35 times lower
  pollen viability (Evans blue) at t=4 h, BG16+PrsS1 against WT+S1 pollen: 53 times lower
  pollen viability (Evans blue) at t>8 h, BG16+PrsS1 against WT+S1 pollen: 45 times lower
